Data: the Immune Epitope Database (IEDB)

What was measured:
[1] = target: HLA-A*24:03; test: IEDB peptide-MHC binding, purified MHC/direct/fluorescence; filed as Kd, often an IC50 or EC50 that approximates it; ≥ and ≤ were set here for values at or beyond the usual limits of such assays; details: source organism: Rickettsia felis URRWXCal2
[2] = target: HLA-A*23:01; test: as above; details: source organism: Rickettsia felis URRWXCal2
[3] = target: HLA-A*69:01; test: as above; details: source organism: Bacillus anthracis
[4] = target: HLA-B*15:17; test: as above; details: source organism: Bacillus anthracis
[5] = target: HLA-B*18:01; test: as above; details: source organism: Bacillus anthracis
[6] = target: HLA-B*57:01; test: as above; details: source organism: Bacillus anthracis
[7] = target: HLA-B*58:01; test: as above; details: source organism: Bacillus anthracis
[8] = target: HLA-B*08:01; test: as above; details: source organism: Bacillus cereus 03BB108
[9] = target: HLA-A*02:01; test: as above; details: source organism: Bacillus anthracis
[10] = target: HLA-B*48:01; test: as above; details: source organism: Bacillus anthracis
[11] = target: HLA-B*27:05; test: as above; details: source organism: Bacillus anthracis
[12] = target: HLA-B*46:01; test: as above; details: source organism: Bacillus anthracis
[13] = target: HLA-A*03:01; test: as above
[14] = target: HLA-A*01:01; test: as above; details: source organism: Bacillus anthracis
[15] = target: HLA-A*31:01; test: as above; details: source organism: Bacillus anthracis
[16] = target: HLA-B*40:01; test: as above; details: source organism: Bacillus anthracis
[17] = target: HLA-A*11:01; test: IEDB peptide-MHC binding, purified MHC/competitive/fluorescence; filed as Kd, often an IC50 or EC50 that approximates it; ≥ and ≤ were set here for values at or beyond the usual limits of such assays; details: source organism: Bacillus anthracis str. A0389
[18] = target: HLA-B*15:01; test: as above; details: source organism: Bacillus anthracis str. A0389
[19] = target: HLA-A*24:03; test: as above
[20] = target: HLA-A*02:11; test: IEDB peptide-MHC binding, purified MHC/direct/fluorescence; filed as Kd, often an IC50 or EC50 that approximates it; ≥ and ≤ were set here for values at or beyond the usual limits of such assays; details: source organism: Zaire ebolavirus
[21] = target: HLA-A*29:02; test: as above
[22] = target: HLA-A*02:12; test: as above
[23] = target: HLA-A*02:03; test: as above
[24] = target: HLA-B*15:01; test: as above; details: source organism: Nitrococcus mobilis Nb-231
[25] = target: HLA-A*68:02; test: as above
[26] = target: HLA-A*02:16; test: as above
[27] = target: HLA-A*02:19; test: as above
[28] = target: HLA-A*69:01; test: IEDB peptide-MHC binding, purified MHC/competitive/fluorescence; filed as Kd, often an IC50 or EC50 that approximates it; ≥ and ≤ were set here for values at or beyond the usual limits of such assays
[29] = target: HLA-A*26:01; test: as above
[30] = target: HLA-B*18:01; test: as above
[31] = target: HLA-B*57:01; test: as above
[32] = target: HLA-B*58:01; test: as above; details: source organism: Zaire ebolavirus
[33] = target: HLA-B*39:01; test: as above
[34] = target: HLA-B*51:01; test: as above
[35] = target: HLA-A*02:01; test: as above
[36] = target: HLA-B*46:01; test: as above
[37] = target: HLA-B*27:03; test: as above
[38] = target: HLA-B*15:17; test: as above; details: source organism: Araucaria virus
[39] = source organism: Zaire ebolavirus
[40] = source organism: Araucaria virus

GYTVARSQL
Kd [1]: 0.022 µM | Kd [2]: 0.466 µM

VTECKLIYY
Kd [3]: ≥ 20 µM | Kd [4]: 0.0347 µM | Kd [5]: ≥ 20 µM | Kd [6]: ≥ 20 µM | Kd [7]: ≥ 20 µM | Kd [8]: ≥ 20 µM | Kd [9]: ≥ 20 µM | Kd [10]: ≥ 20 µM | Kd [11]: ≥ 20 µM | Kd [12]: ≥ 20 µM | Kd ([13]; source organism: Bacillus anthracis): ≥ 20 µM | Kd [14]: 0.007 µM | Kd [15]: ≥ 20 µM | Kd [16]: ≥ 20 µM | Kd [17]: 1.26 µM | Kd [18]: ≥ 20 µM

CYPYDVPDY
Kd ([19]; source organism: Influenza A virus): 0.223 µM

ISSGETRSF
Kd [20]: ≥ 20 µM | Kd [21, 39]: ≥ 20 µM | Kd [22, 39]: ≥ 20 µM | Kd [23, 39]: ≥ 20 µM | Kd [24]: 3.6 µM | Kd [25, 39]: ≥ 20 µM | Kd [26, 39]: ≥ 20 µM | Kd [13, 39]: ≥ 20 µM | Kd [27, 39]: ≥ 20 µM | Kd [28, 39]: ≥ 20 µM | Kd [29, 39]: ≥ 20 µM | Kd [30, 39]: ≥ 20 µM | Kd [31, 39]: ≥ 20 µM | Kd [32]: 0.351 µM | Kd [33, 39]: ≥ 20 µM | Kd [34, 39]: ≥ 20 µM | Kd [35, 39]: ≥ 20 µM | Kd [36, 39]: ≥ 20 µM | Kd [37, 39]: ≥ 20 µM

LYVAGVPEL
Kd [21, 40]: ≥ 20 µM | Kd [22, 40]: ≥ 20 µM | Kd [23, 40]: ≥ 20 µM | Kd [25, 40]: ≥ 20 µM | Kd [26, 40]: ≥ 20 µM | Kd [13, 40]: ≥ 20 µM | Kd [27, 40]: ≥ 20 µM | Kd [28, 40]: ≥ 20 µM | Kd [29, 40]: ≥ 20 µM | Kd [38]: ≥ 20 µM | Kd [30, 40]: ≥ 20 µM | Kd [31, 40]: ≥ 20 µM | Kd [19, 40]: 0.0003 µM | Kd [33, 40]: ≥ 20 µM | Kd [34, 40]: ≥ 20 µM | Kd [35, 40]: ≥ 20 µM | Kd [36, 40]: ≥ 20 µM | Kd [37, 40]: ≥ 20 µM
